{
  "source": "patent US20250197451A1",
  "about": "(CAPITAL MEDICAL UNIVERSITY SCHOOL OF STOMATOLOGY, published 2025);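 note: 100% is the highest background-corrected spot optical density on the membrane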",
  "data": [
    {"biological_target": "T1, biotin-labelled EZH2 protein (UniProt Q15910 1-746, limits assumed, biotin label (EZ-link NHS-PEO4-Biotinylation kit))", "T1 construct": "Probe in solution (1 ug/ml) on the KDM2B peptide microarray; also called NHS-PEO4-Biotinylation-labelled EZH2 protein; recombinant protein", "T1 sequence (Q15910 whole entry)": "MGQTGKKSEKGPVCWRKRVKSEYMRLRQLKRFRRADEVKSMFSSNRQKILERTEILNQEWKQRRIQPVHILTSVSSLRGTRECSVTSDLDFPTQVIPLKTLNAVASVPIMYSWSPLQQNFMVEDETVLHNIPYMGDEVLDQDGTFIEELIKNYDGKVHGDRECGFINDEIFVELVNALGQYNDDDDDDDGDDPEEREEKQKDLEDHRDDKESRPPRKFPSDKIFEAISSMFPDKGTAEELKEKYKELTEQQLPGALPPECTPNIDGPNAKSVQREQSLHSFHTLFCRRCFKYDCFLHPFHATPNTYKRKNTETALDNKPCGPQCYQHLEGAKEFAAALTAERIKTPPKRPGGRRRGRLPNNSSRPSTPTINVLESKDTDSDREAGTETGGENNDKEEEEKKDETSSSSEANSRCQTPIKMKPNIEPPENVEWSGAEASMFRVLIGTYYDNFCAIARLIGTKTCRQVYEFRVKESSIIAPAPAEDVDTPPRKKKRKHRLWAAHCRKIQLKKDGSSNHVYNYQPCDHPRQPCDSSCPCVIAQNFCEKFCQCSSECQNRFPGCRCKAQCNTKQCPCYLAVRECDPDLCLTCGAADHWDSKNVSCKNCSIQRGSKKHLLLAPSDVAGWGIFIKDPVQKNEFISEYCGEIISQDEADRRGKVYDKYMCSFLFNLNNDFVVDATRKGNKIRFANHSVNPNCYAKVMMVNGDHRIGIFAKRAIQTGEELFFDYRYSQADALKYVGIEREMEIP", "assay": "KDM2B peptide array probed with biotin-EZH2 1 ug/ml, SA-HRP/ECL;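 note: Background-corrected optical density of each spot on the membrane, given as percent of the brightest spot (100%), color developed for 5 minutes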", "units": {"Intensity (%)": "%"}, "protocol": "(§1) After blocking, the polypeptide microarray was incubated with biotin-labeled target protein for hybridization, visualized with the chemical chromogenic substrate and imaged using a Chempchemi digital imager. The image of colored polypeptide microarray was analyzed for the optical density of the colored points. Particularly, the optical density of each colored point was calculated using the optical density of the respective surrounding background as a reference for background correction. The highest optical density value of the colored point on membrane was set to 100%, and the optical density value of the remaining colored points was converted into percentages relative to the highest value. The points with an optical density percentage of more than 30% on the polypeptide membrane and also with an optical density percentage of less than 30% on the negative membrane were defined as positive colored points.\n(§2) For the hybridization experiment, a solution of NHS-PEO4-Biotinylation-labelled EZH2 protein (1 μg/ml) was used for the hybridization of the polypeptide microarray. Streptavidin-HRP was used to amplify the reaction signal according to the experimental procedure and conditions described above, and the time of color development was 5 minutes.", "values": [
      {"binder": "LVGSRRLVDVMDVNT", "note": "[peptide 27]", "Intensity (%)": 0},
      {"binder": "RLVDVMDVNTQKGTE", "note": "[peptide 28]", "Intensity (%)": 0},
      {"binder": "MDVNTQKGTEMSMSQ", "note": "[peptide 29]", "Intensity (%)": 5.32},
      {"binder": "EDHPPRKRHAAEKQK", "note": "[peptide 3]", "Intensity (%)": 0},
      {"binder": "QKGTEMSMSQFVRYY", "note": "[peptide 30]", "Intensity (%)": 1.2},
      {"binder": "MSMSQFVRYYETPEA", "note": "[peptide 31]", "Intensity (%)": 19.2},
      {"binder": "QRDKLYNVISLEFSH", "note": "[peptide 34]", "Intensity (%)": 0},
      {"binder": "YNVISLEFSHTKLEH", "note": "[peptide 35]", "Intensity (%)": 5.95},
      {"binder": "LEFSHTKLEHLVKRP", "note": "[peptide 36]", "Intensity (%)": 0.89},
      {"binder": "TKLEHLVKRPTVVDL", "note": "[peptide 37]", "Intensity (%)": 0.73},
      {"binder": "LVKRPTVVDLVDWVD", "note": "[peptide 38]", "Intensity (%)": 0},
      {"binder": "TVVDLVDWVDNMWPQ", "note": "[peptide 39]", "Intensity (%)": 0.27},
      {"binder": "RKRHAAEKQKKKTVI", "note": "[peptide 4]", "Intensity (%)": 0},
      {"binder": "VDWVDNMWPQHLKEK", "note": "[peptide 40]", "Intensity (%)": 0},
      {"binder": "NMWPQHLKEKQTEAT", "note": "[peptide 41]", "Intensity (%)": 0},
      {"binder": "HLKEKQTEATNAIAE", "note": "[peptide 42]", "Intensity (%)": 2.03},
      {"binder": "QTEATNAIAEMKYPK", "note": "[peptide 43]", "Intensity (%)": 0},
      {"binder": "MKYPKVKKYCLMSVK", "note": "[peptide 45]", "Intensity (%)": 7.77},
      {"binder": "VKKYCLMSVKGCFTD", "note": "[peptide 46]", "Intensity (%)": 100},
      {"binder": "LMSVKGCFTDFHIDF", "note": "[peptide 47]", "Intensity (%)": 100},
      {"binder": "GCFTDFHIDFGGTSV", "note": "[peptide 48]", "Intensity (%)": 0},
      {"binder": "FHIDFGGTSVWYHVF", "note": "[peptide 49]", "Intensity (%)": 0},
      {"binder": "AEKQKKKTVIYTKCF", "note": "[peptide 5]", "Intensity (%)": 97},
      {"binder": "WYHVFRGGKIFWLIP", "note": "[peptide 51]", "Intensity (%)": 0},
      {"binder": "RGGKIFWLIPPTLHN", "note": "[peptide 52]", "Intensity (%)": 0.55},
      {"binder": "FWLIPPTLHNLALYE", "note": "[peptide 53]", "Intensity (%)": 0.7},
      {"binder": "LALYEEWVLSGKQSD", "note": "[peptide 55]", "Intensity (%)": 0},
      {"binder": "EWVLSGKQSDIFLGD", "note": "[peptide 56]", "Intensity (%)": 24.6},
      {"binder": "IFLGDRVERCQRIEL", "note": "[peptide 58]", "Intensity (%)": 15.6},
      {"binder": "RVERCQRIELKQGYT", "note": "[peptide 59]", "Intensity (%)": 11.4},
      {"binder": "KKTVIYTKCFEFESA", "note": "[peptide 6]", "Intensity (%)": 27.5},
      {"binder": "QRIELKQGYTFFIPS", "note": "[peptide 60]", "Intensity (%)": 0.3},
      {"binder": "KQGYTFFIPSGWIHA", "note": "[peptide 61]", "Intensity (%)": 0.85},
      {"binder": "FFIPSGWIHAVYTPV", "note": "[peptide 62]", "Intensity (%)": 2.54},
      {"binder": "GWIHAVYTPVDSLVF", "note": "[peptide 63]", "Intensity (%)": 1.74},
      {"binder": "GGNILHSFNVPMQLR", "note": "[peptide 66]", "Intensity (%)": 0.54},
      {"binder": "HSFNVPMQLRIYEIE", "note": "[peptide 67]", "Intensity (%)": 0},
      {"binder": "PMQLRIYEIEDRTRV", "note": "[peptide 68]", "Intensity (%)": 6.33},
      {"binder": "YTKCFEFESATQRPI", "note": "[peptide 7]", "Intensity (%)": 0},
      {"binder": "YPFYYEMCWYVLERY", "note": "[peptide 72]", "Intensity (%)": 0.04},
      {"binder": "VYCVTQRSHLTQEYQ", "note": "[peptide 75]", "Intensity (%)": 0},
      {"binder": "QRSHLTQEYQRESML", "note": "[peptide 76]", "Intensity (%)": 0},
      {"binder": "RESMLIDAPRKPSID", "note": "[peptide 78]", "Intensity (%)": 1.74},
      {"binder": "IDAPRKPSIDGFSSD", "note": "[peptide 79]", "Intensity (%)": 1.13},
      {"binder": "KPSIDGFSSDSWLEM", "note": "[peptide 80]", "Intensity (%)": 6.61},
      {"binder": "GFSSDSWLEMEEEAC", "note": "[peptide 81]", "Intensity (%)": 7.19},
      {"binder": "SWLEMEEEACDQQPQ", "note": "[peptide 82]", "Intensity (%)": 0},
      {"binder": "EEEEKDEEGEGRDRA", "note": "[peptide 85]", "Intensity (%)": 0},
      {"binder": "DEEGEGRDRAPKPPT", "note": "[peptide 86]", "Intensity (%)": 0.03},
      {"binder": "GRDRAPKPPTDGSTS", "note": "[peptide 87]", "Intensity (%)": 0},
      {"binder": "PKPPTDGSTSPTSTP", "note": "[peptide 88]", "Intensity (%)": 0},
      {"binder": "TQRPIDRQRYDENED", "note": "[peptide 9]", "Intensity (%)": 0},
      {"binder": "PKAPALRFLKRTLSN", "note": "[peptide 93]", "Intensity (%)": 0},
      {"binder": "LRFLKRTLSNESEES", "note": "[peptide 94]", "Intensity (%)": 0},
      {"binder": "RTLSNESEESVKSTT", "note": "[peptide 95]", "Intensity (%)": 0},
      {"binder": "VKSTTLAVDYPKTPT", "note": "[peptide 97]", "Intensity (%)": 0}
    ]},
    {"biological_target": "T1, biotin-labelled EZH2 protein", "assay": "KDM2B peptide array probed with biotin-EZH2 1 ug/ml, SA-HRP/ECL; Remark: noise", "units": {"Intensity (%)": "%"}, "protocol": "as §1, §2", "values": [
      {"binder": "KDMKKFGGPGRMKQS", "note": "[peptide 127]", "Intensity (%)": 0},
      {"binder": "EIVSVRGFSLEEKLR", "note": "[peptide 13]", "Intensity (%)": 0.05},
      {"binder": "RGFSLEEKLRSQLYQ", "note": "[peptide 14]", "Intensity (%)": 0.07},
      {"binder": "KCNHAGKTGKQKRGP", "note": "[peptide 145]", "Intensity (%)": 0},
      {"binder": "GKTGKQKRGPGFKYA", "note": "[peptide 146]", "Intensity (%)": 0.01},
      {"binder": "EEAPRRRSDEHSKKV", "note": "[peptide 155]", "Intensity (%)": 0},
      {"binder": "ELSGRKRASSLQTSP", "note": "[peptide 163]", "Intensity (%)": 0},
      {"binder": "KRASSLQTSPGSSSH", "note": "[peptide 164]", "Intensity (%)": 0.34},
      {"binder": "LQTSPGSSSHLSPRP", "note": "[peptide 165]", "Intensity (%)": 0},
      {"binder": "AMEGKDFNYEYVQRE", "note": "[peptide 18]", "Intensity (%)": 0},
      {"binder": "PPKTRESDHSRSSSP", "note": "[peptide 181]", "Intensity (%)": 0.3},
      {"binder": "ESDHSRSSSPTAGPS", "note": "[peptide 182]", "Intensity (%)": 0.36},
      {"binder": "RSSSPTAGPSTEGAE", "note": "[peptide 183]", "Intensity (%)": 0},
      {"binder": "TAGPSTEGAEGPEEK", "note": "[peptide 184]", "Intensity (%)": 0}
    ]}
  ]
}
